Data: IntAct's records for PubMed 20935634

B1: FAS-associated death domain protein (Homo sapiens), Q13158 (parent)
chain: MDPFLVLLHSVSSSLSSSELTELKFLCLGRVGKRKLERVQSGLDLFSMLLEQNDLEPGHTELLRELLASLRRHDLLRRVDDFEAGAAAGAAPGEEDLCAAFNVICDNVGKDWRRLARQLKVSDTKIDSIEDRYPRNLTERVRESLRIWKNTEKENATVAHLVGALRSCQMNLVADLVQEVQQARDLQNRSGAMSPMSWNSDASTSEAS
B2: Tumor necrosis factor receptor superfamily member 6 (Homo sapiens), P25445-1 (parent)
chain: MLGIWTLLPLVLTSVARLSSKSVNAQVTDINSKGLELRKTVTTVETQNLEGLHHDGQFCHKPCPPGERKARDCTVNGDEPDCVPCQEGKEYTDKAHFSSKCRRCRLCDEGHGLEVEINCTRTQNTKCRCKPNFFCNSTVCEHCDPCTKCEHGIIKECTLTSNTKCKEEGSRSNLGWLCLLLLPIPLIVWVKRKEVQKTCRKHRKENQGSHESPTLNPETVAINLSDVDLSKYITTIAGVMTLSQVKGFVRKNGVNEAKIDEIKNDNVQDTAEQKVQLLRNWHQLHGKKEAYDTLIKDLKKANLCTLAEKIQTIILKDITSDSENSNFRNEIQSLV

Variants of: B1
Conditions: with FAS

| Variant | effect of a mutation on the interaction |
| --- | --- |
| MDPFLVLLHSVSSSLSSSELTELKFLCLGRVGKRKLERVQSGLDLFSMLLEQNDLEPGHTELLRELLASLRRHDLLRRVDDFEAGAAAGAAPGEEDLCAAFNVICDNVGKDWRRLARQLKVSDTKIDSIEDRYPRNLTERVEESLRIWKNTEKENATVAHLVGALRSCQMNLVADLVQEVQQARDLQNRSGAMSPMSWNSDASTSEAS [R142E] | disrupting interaction |
| MDPFLVLLHSVSSSLSSSELTELKFLCLGRVGKRKLERVQSGLDLFSMLLEQNDLEPGHTELLRELLASLRRHDLLRRVDDFEAGAAAGAAPGEEDLCAAFNVICDNVGKDWRRLARQLKVSDTKIDSIEDRYPRNLTERVRESLRIWKNTEKENATVAHLVGALRSCQMNLVAKLVQEVQQARDLQNRSGAMSPMSWNSDASTSEAS [D175K] | disrupting interaction |
| MDPFLVLLHSVSSSLSSSELTELKFLCLGRVGKRKLERVQSGLDLFSMLLEQNDLEPGHTELLRELLASLRRHDLLRRVDDFEAGAAAGAAPGEEDLCAAFNVICDNVGKDWRRLARQLKVSDTKIDSIEDRYPRNLTERVRESLRIWKNTEKENATVAHLVGALRSCQMNKVADLVQEVQQARDLQNRSGAMSPMSWNSDASTSEAS [L172K] | disrupting interaction |
| MDPFLVLLHSVSSSLSSSELTELKFLCLGRVGKRKLERVQSGLDLFSMLLEQNDLEPGHTELLRELLASLRRHDLLRRVDDFEAGAAAGAAPGEEDLCAAFNVICDNVGKDWRRLARQLKVSRTKIDSIEDRYPRNLTERVRESLRIWKNTEKENATVAHLVGALRSCQMNLVADLVQEVQQARDLQNRSGAMSPMSWNSDASTSEAS [D123R] | disrupting interaction |
| MDPFLVLLHSVSSSLSSSELTELKFLCLGRVGKRKLERVQSGLDLFSMLLEQNDLEPGHTELLRELLASLRRHDLLRRVDDFEAGAAAGAAPGEEDLCAAFNVICDNVGKDWRRLARQLKVSDTKIDSIEDRYPENLTERVRESLRIWKNTEKENATVAHLVGALRSCQMNLVADLVQEVQQARDLQNRSGAMSPMSWNSDASTSEAS [R135E] | disrupting interaction |

Variants of: B1
Conditions: with FAS
Remark: another data set of the same source

| Variant | effect of a mutation on the interaction |
| --- | --- |
| MDPFLVLLHSVSSSLSSSELTELKFLCLGRVGKRKLERVQSGLDLFSMLLEQNDLEPGHTELLRELLASLRRHDLLRRVDDFEAGAAAGAAPGEEDLCAAFNVICDNVGKDWRRLARQLKVSDTKIDSIEDRYPRNLTERVEESLRIWKNTEKENATVAHLVGALRSCQMNLVADLVQEVQQARDLQNRSGAMSPMSWNSDASTSEAS [R142E] | decreasing interaction |
| MDPFLVLLHSVSSSLSSSELTELKFLCLGRVGKRKLERVQSGLDLFSMLLEQNDLEPGHTELLRELLASLRRHDLLRRVDDFEAGAAAGAAPGEEDLCAAFNVICDNVGKDWRRLARQLKVSRTKIDSIEDRYPRNLTERVRESLRIWKNTEKENATVAHLVGALRSCQMNLVADLVQEVQQARDLQNRSGAMSPMSWNSDASTSEAS [D123R] | decreasing interaction |
| MDPFLVLLHSVSSSLSSSELTELKFLCLGRVGKRKLERVQSGLDLFSMLLEQNDLEPGHTELLRELLASLRRHDLLRRVDDFEAGAAAGAAPGEEDLCAAFNVICDNVGKDWRRLARQLKVSDTKIDSIEDRYPENLTERVRESLRIWKNTEKENATVAHLVGALRSCQMNLVADLVQEVQQARDLQNRSGAMSPMSWNSDASTSEAS [R135E] | decreasing interaction |

Variants of: B2
Conditions: with fadd_human FADD

| Variant | effect of a mutation on the interaction |
| --- | --- |
| MLGIWTLLPLVLTSVARLSSKSVNAQVTDINSKGLELRKTVTTVETQNLEGLHHDGQFCHKPCPPGERKARDCTVNGDEPDCVPCQEGKEYTDKAHFSSKCRRCRLCDEGHGLEVEINCTRTQNTKCRCKPNFFCNSTVCEHCDPCTKCEHGIIKECTLTSNTKCKEEGSRSNLGWLCLLLLPIPLIVWVKRKEVQKTCRKHRKENQGSHESPTLNPETVAINLSDVDLSKYITTIAGVMTLSQVKGFVRKNGVNEAKIDEIKNDNVQDKAEQKVQLLRNWHQLHGKKEAYDTLIKDLKKANLCTLAEKIQTIILKDITSDSENSNFRNEIQSLV [T270K] | disrupting interaction |
| MLGIWTLLPLVLTSVARLSSKSVNAQVTDINSKGLELRKTVTTVETQNLEGLHHDGQFCHKPCPPGERKARDCTVNGDEPDCVPCQEGKEYTDKAHFSSKCRRCRLCDEGHGLEVEINCTRTQNTKCRCKPNFFCNSTVCEHCDPCTKCEHGIIKECTLTSNTKCKEEGSRSNLGWLCLLLLPIPLIVWVKRKEVQKTCRKHRKENQGSHESPTLNPETVAINLSDVDLSKYITTIAGVMTLSQVKGFVRKNGVNEAKIYEIKNDNVQDTAEQKVQLLRNWHQLHGKKEAYDTLIKDLKKANLCTLAEKIQTIILKDITSDSENSNFRNEIQSLV [D260Y] | disrupting interaction |
| MLGIWTLLPLVLTSVARLSSKSVNAQVTDINSKGLELRKTVTTVETQNLEGLHHDGQFCHKPCPPGERKARDCTVNGDEPDCVPCQEGKEYTDKAHFSSKCRRCRLCDEGHGLEVEINCTRTQNTKCRCKPNFFCNSTVCEHCDPCTKCEHGIIKECTLTSNTKCKEEGSRSNLGWLCLLLLPIPLIVWVKRKEVQKTCRKHRKENQGSHESPTLNPETVAINLSDVDLSKYITTIAGVMTLSQVKGFVRKNGVNEAKIDKIKNDNVQDTAEQKVQLLRNWHQLHGKKEAYDTLIKDLKKANLCTLAEKIQTIILKDITSDSENSNFRNEIQSLV [E261K] | disrupting interaction |
| MLGIWTLLPLVLTSVARLSSKSVNAQVTDINSKGLELRKTVTTVETQNLEGLHHDGQFCHKPCPPGERKARDCTVNGDEPDCVPCQEGKEYTDKAHFSSKCRRCRLCDEGHGLEVEINCTRTQNTKCRCKPNFFCNSTVCEHCDPCTKCEHGIIKECTLTSNTKCKEEGSRSNLGWLCLLLLPIPLIVWVKRKEVQKTCRKHRKENQGSHESPTLNPETVAINLSDVDLSKYITTIAGVMTLSQVKGFVRKNGVNEAKIDEIKNDNVQDTAEQKVQLLRNWHKLHGKKEAYDTLIKDLKKANLCTLAEKIQTIILKDITSDSENSNFRNEIQSLV [Q283K] | disrupting interaction |
| MLGIWTLLPLVLTSVARLSSKSVNAQVTDINSKGLELRKTVTTVETQNLEGLHHDGQFCHKPCPPGERKARDCTVNGDEPDCVPCQEGKEYTDKAHFSSKCRRCRLCDEGHGLEVEINCTRTQNTKCRCKPNFFCNSTVCEHCDPCTKCEHGIIKECTLTSNTKCKEEGSRSNLGWLCLLLLPIPLIVWVKRKEVQKTCRKHRKENQGSHESPTLNPETVAINLSDVDLSKYITTIAGVMTLSQVKGFVRKNGVNEAKIDEIKNDNVQDTAKQKVQLLRNWHQLHGKKEAYDTLIKDLKKANLCTLAEKIQTIILKDITSDSENSNFRNEIQSLV [E272K] | disrupting interaction |
| MLGIWTLLPLVLTSVARLSSKSVNAQVTDINSKGLELRKTVTTVETQNLEGLHHDGQFCHKPCPPGERKARDCTVNGDEPDCVPCQEGKEYTDKAHFSSKCRRCRLCDEGHGLEVEINCTRTQNTKCRCKPNFFCNSTVCEHCDPCTKCEHGIIKECTLTSNTKCKEEGSRSNLGWLCLLLLPIPLIVWVKRKEVQKTCRKHRKENQGSHESPTLNPETVAINLSDVDLSKYITTIAGVMTLSQVKGFVRKNGVNEDKIDEIKNDNVQDTAEQKVQLLRNWHQLHGKKEAYDTLIKDLKKANLCTLAEKIQTIILKDITSDSENSNFRNEIQSLV [A257D] | disrupting interaction |
| MLGIWTLLPLVLTSVARLSSKSVNAQVTDINSKGLELRKTVTTVETQNLEGLHHDGQFCHKPCPPGERKARDCTVNGDEPDCVPCQEGKEYTDKAHFSSKCRRCRLCDEGHGLEVEINCTRTQNTKCRCKPNFFCNSTVCEHCDPCTKCEHGIIKECTLTSNTKCKEEGSRSNLGWLCLLLLPIPLIVWVKRKEVQKTCRKHRKENQGSHESPTLNPETVAINLSDVDLSKYITTIAGVMTLSQVKGFVQKNGVNEAKIDEIKNDNVQDTAEQKVQLLRNWHQLHGKKEAYDTLIKDLKKANLCTLAEKIQTIILKDITSDSENSNFRNEIQSLV [R250Q] | decreasing interaction strength |
| MLGIWTLLPLVLTSVARLSSKSVNAQVTDINSKGLELRKTVTTVETQNLEGLHHDGQFCHKPCPPGERKARDCTVNGDEPDCVPCQEGKEYTDKAHFSSKCRRCRLCDEGHGLEVEINCTRTQNTKCRCKPNFFCNSTVCEHCDPCTKCEHGIIKECTLTSNTKCKEEGSRSNLGWLCLLLLPIPLIVWVKRKEVQKTCRKHRKENQGSHESPTLNPETVAINLSDVDLSKYITTIAGVMTLSQVKGFVEKNGVNEAKIDEIKNDNVQDTAEQKVQLLRNWHQLHGKKEAYDTLIKDLKKANLCTLAEKIQTIILKDITSDSENSNFRNEIQSLV [R250E] | disrupting interaction strength |
| MLGIWTLLPLVLTSVARLSSKSVNAQVTDINSKGLELRKTVTTVETQNLEGLHHDGQFCHKPCPPGERKARDCTVNGDEPDCVPCQEGKEYTDKAHFSSKCRRCRLCDEGHGLEVEINCTRTQNTKCRCKPNFFCNSTVCEHCDPCTKCEHGIIKECTLTSNTKCKEEGSRSNLGWLCLLLLPIPLIVWVKRKEVQKTCRKHRKENQGSHESPTLNPETVAINLSDVDLSKYITTIAGVMTLSQVKGFVRKNGVNEAKIDEIKNDNVQDTAEQKVQLLRNWHQLHGDKEAYDTLIKDLKKANLCTLAEKIQTIILKDITSDSENSNFRNEIQSLV [K287D] | disrupting interaction |

Variants of: B2
Conditions: with fadd_human FADD
Remark: another data set of the same source

| Variant | effect of a mutation on the interaction |
| --- | --- |
| MLGIWTLLPLVLTSVARLSSKSVNAQVTDINSKGLELRKTVTTVETQNLEGLHHDGQFCHKPCPPGERKARDCTVNGDEPDCVPCQEGKEYTDKAHFSSKCRRCRLCDEGHGLEVEINCTRTQNTKCRCKPNFFCNSTVCEHCDPCTKCEHGIIKECTLTSNTKCKEEGSRSNLGWLCLLLLPIPLIVWVKRKEVQKTCRKHRKENQGSHESPTLNPETVAINLSDVDLSKYITTIAGVMTLSQVKGFVRKNGVNEAKIYEIKNDNVQDTAEQKVQLLRNWHQLHGKKEAYDTLIKDLKKANLCTLAEKIQTIILKDITSDSENSNFRNEIQSLV [D260Y] | disrupting interaction strength |
| MLGIWTLLPLVLTSVARLSSKSVNAQVTDINSKGLELRKTVTTVETQNLEGLHHDGQFCHKPCPPGERKARDCTVNGDEPDCVPCQEGKEYTDKAHFSSKCRRCRLCDEGHGLEVEINCTRTQNTKCRCKPNFFCNSTVCEHCDPCTKCEHGIIKECTLTSNTKCKEEGSRSNLGWLCLLLLPIPLIVWVKRKEVQKTCRKHRKENQGSHESPTLNPETVAINLSDVDLSKYITTIAGVMTLSQVKGFVRKNGVNEAKIVEIKNDNVQDTAEQKVQLLRNWHQLHGKKEAYDTLIKDLKKANLCTLAEKIQTIILKDITSDSENSNFRNEIQSLV [D260V] | disrupting interaction strength |
| MLGIWTLLPLVLTSVARLSSKSVNAQVTDINSKGLELRKTVTTVETQNLEGLHHDGQFCHKPCPPGERKARDCTVNGDEPDCVPCQEGKEYTDKAHFSSKCRRCRLCDEGHGLEVEINCTRTQNTKCRCKPNFFCNSTVCEHCDPCTKCEHGIIKECTLTSNTKCKEEGSRSNLGWLCLLLLPIPLIVWVKRKEVQKTCRKHRKENQGSHESPTLNPETVAINLSDVDLSKYITTIAGVMTLSQVKGFVEKNGVNEAKIDEIKNDNVQDTAEQKVQLLRNWHQLHGKKEAYDTLIKDLKKANLCTLAEKIQTIILKDITSDSENSNFRNEIQSLV [R250E] | decreasing interaction |
